Measured values published in the supplement of paper PMC10567573.

B1: CLCN6 (parent)
chain: VGEIVGIITRHNLTYEFLQARLRQ

Variants of: B1
Test: protein stability index of a GFP-peptide fusion (GPS, HEK-293T) (PSI 1-6); higher = more stable
Details: c terminus: a fixed tail appended
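Further: lentivirally expressed fusions sorted by FACS into six bins by GFP to DsRed ratio, PSI derived from sequencing read proportions per bin multiplied by bin number.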

With VGEIVGIITRHNGTYEFLQARLRQ as the variant, how does the protein stability index read?
The protein stability index was 1.7.

For VGEIVGIITRHNMTYEFLQARLRQ, which protein stability index is on record?
Its protein stability index is 1.86.

With VGEIVGIITRHNCTYEFLQARLRQ as the variant, how does the protein stability index read?
The protein stability index was 2.08.

Which protein stability index does the source give for VGEIVGIITRHNFTYEFLQARLRQ here?
The protein stability index was 2.15.

Which protein stability index does the source give for VGEIVGIITRHNITYEFLQARLRQ here?
Its protein stability index is 3.13.

Which protein stability index does the source give for VGEIVGIITRHNNTYEFLQARLRQ here?
The protein stability index was 1.08.

For VGEIVGIITRHNWTYEFLQARLRQ, which protein stability index is on record?
Its protein stability index is 3.73.

Which protein stability index does the source give for VGEIVGIITRHNVTYEFLQARLRQ here?
The protein stability index was 2.04.

For VGEIVGIITRHNQTYEFLQARLRQ, which protein stability index is on record?
Its protein stability index is 1.69.

Which protein stability index does the source give for VGEIVGIITRHNATYEFLQARLRQ here?
The protein stability index was 1.63.

For VGEIVGIITRHNHTYEFLQARLRQ, which protein stability index is on record?
The protein stability index was 1.51.

With VGEIVGIITRHPLTYEFLQARLRQ as the variant, how does the protein stability index read?
The protein stability index was 1.92.

Which protein stability index does the source give for VGEIVGIITRHKLTYEFLQARLRQ here?
Its protein stability index is 2.04.

With VGEIVGIITRHGLTYEFLQARLRQ as the variant, how does the protein stability index read?
Its protein stability index is 5.11.

With VGEIVGIITRHDLTYEFLQARLRQ as the variant, how does the protein stability index read?
The protein stability index was 2.21.

With VGEIVGIITRHCLTYEFLQARLRQ as the variant, how does the protein stability index read?
The protein stability index was 2.21.

Which protein stability index does the source give for VGEIVGIITRHILTYEFLQARLRQ here?
The protein stability index was 1.15.

Which protein stability index does the source give for VGEIVGIITRHALTYEFLQARLRQ here?
The protein stability index was 5.

With VGEIVGIITRHELTYEFLQARLRQ as the variant, how does the protein stability index read?
The protein stability index was 1.16.

For VGEIVGIITRHQLTYEFLQARLRQ, which protein stability index is on record?
The protein stability index was 4.

With VGEIVGIITRHHLTYEFLQARLRQ as the variant, how does the protein stability index read?
Its protein stability index is 3.27.

For VGEIVGIITRHRLTYEFLQARLRQ, which protein stability index is on record?
Its protein stability index is 2.69.

With VGEINGIITRHNLTYEFLQARLRQ as the variant, how does the protein stability index read?
The protein stability index was 1.75.

Which protein stability index does the source give for VGEIQGIITRHNLTYEFLQARLRQ here?
Its protein stability index is 1.37.

For VGEISGIITRHNLTYEFLQARLRQ, which protein stability index is on record?
Its protein stability index is 1.83.

For VGEIKGIITRHNLTYEFLQARLRQ, which protein stability index is on record?
The protein stability index was 1.38.

Which protein stability index does the source give for VGEIRGIITRHNLTYEFLQARLRQ here?
The protein stability index was 2.55.

Which protein stability index does the source give for VGEIYGIITRHNLTYEFLQARLRQ here?
The protein stability index was 2.19.

For VGEIPGIITRHNLTYEFLQARLRQ, which protein stability index is on record?
The protein stability index was 2.46.

With VGEITGIITRHNLTYEFLQARLRQ as the variant, how does the protein stability index read?
The protein stability index was 1.49.

Which protein stability index does the source give for VGEIMGIITRHNLTYEFLQARLRQ here?
Its protein stability index is 3.11.

With VGEIVGIITRHNLTYEFLQARRRQ as the variant, how does the protein stability index read?
The protein stability index was 2.47.

Which protein stability index does the source give for VGEIVGIITRHNLTYEFLQARMRQ here?
Its protein stability index is 2.37.

For VGEIVGIITRHNLTYEFLQARKRQ, which protein stability index is on record?
Its protein stability index is 1.93.

Which protein stability index does the source give for VGEIVGIITRHNLTYEFLQARQRQ here?
Its protein stability index is 2.07.

For VGEIVGIITRHNLTYEFLQARHRQ, which protein stability index is on record?
The protein stability index was 1.93.

With VGEIVGIITRHNLTYEFLQARNRQ as the variant, how does the protein stability index read?
The protein stability index was 1.15.

For VGEIVGIITRHNLTYEFLQARVRQ, which protein stability index is on record?
Its protein stability index is 3.2.

For VGEIVGIITRHNLTYEFLQARERQ, which protein stability index is on record?
Its protein stability index is 1.04.

Which protein stability index does the source give for VGEIVGIITRHNLTYEFLQARSRQ here?
The protein stability index was 2.58.

For VGEIVGIITRHNLTYEFLQARPRQ, which protein stability index is on record?
Its protein stability index is 1.53.

With VGEIVGIITRHNLTYEFLQARDRQ as the variant, how does the protein stability index read?
Its protein stability index is 1.51.

For VGEIVGIITRHNLTYEFLQARYRQ, which protein stability index is on record?
The protein stability index was 2.44.

Which protein stability index does the source give for VGEIVGIITRHNLTYEFLQARWRQ here?
Its protein stability index is 2.32.

For VGEIVGIITRHNLTYEFLSARLRQ, which protein stability index is on record?
Its protein stability index is 2.49.

Which protein stability index does the source give for VGEIVGIITRHNLTYEFLIARLRQ here?
The protein stability index was 3.35.

With VGEIVGIITRHNLTYEFLPARLRQ as the variant, how does the protein stability index read?
Its protein stability index is 1.62.

For VGEIVGIITRHNLTYEFLGARLRQ, which protein stability index is on record?
The protein stability index was 1.52.

With VGEIVGIITRHNLTYEFLYARLRQ as the variant, how does the protein stability index read?
Its protein stability index is 1.01.

Which protein stability index does the source give for VGEIVGIITRHNLTYEFLEARLRQ here?
The protein stability index was 2.47.

With VGEIVGIITRHNLTYEFLKARLRQ as the variant, how does the protein stability index read?
The protein stability index was 4.39.

Which protein stability index does the source give for VGEIVGIITRHNLTYLFLQARLRQ here?
The protein stability index was 3.17.

With VGEIVGIITRHNLTYWFLQARLRQ as the variant, how does the protein stability index read?
Its protein stability index is 3.79.

For VGEIVGIITRHNLTYSFLQARLRQ, which protein stability index is on record?
Its protein stability index is 2.17.

With VGEIVGIITRHNLTYKFLQARLRQ as the variant, how does the protein stability index read?
Its protein stability index is 1.52.

Which protein stability index does the source give for VGEIVGIITRHNLTYHFLQARLRQ here?
Its protein stability index is 2.17.

For VGEIVGIITRHNLTYGFLQARLRQ, which protein stability index is on record?
The protein stability index was 1.02.

Which protein stability index does the source give for VGEIVGIITRHNLTYRFLQARLRQ here?
Its protein stability index is 2.46.

For VGEIVGIITRHNLTYQFLQARLRQ, which protein stability index is on record?
The protein stability index was 1.93.

For VGEIVGIITRHNLTYPFLQARLRQ, which protein stability index is on record?
The protein stability index was 1.8.

Which protein stability index does the source give for VGEIVGIITKHNLTYEFLQARLRQ here?
Its protein stability index is 2.19.

For VGEIVGIITNHNLTYEFLQARLRQ, which protein stability index is on record?
The protein stability index was 2.88.

Which protein stability index does the source give for VGEIVGIITPHNLTYEFLQARLRQ here?
The protein stability index was 1.75.

For VGEIVGIITLHNLTYEFLQARLRQ, which protein stability index is on record?
The protein stability index was 4.12.

With VGEIVGIITDHNLTYEFLQARLRQ as the variant, how does the protein stability index read?
The protein stability index was 2.73.

Which protein stability index does the source give for VGEIVGIITYHNLTYEFLQARLRQ here?
The protein stability index was 1.93.

For VGEIVGIITEHNLTYEFLQARLRQ, which protein stability index is on record?
Its protein stability index is 2.92.

For VGEIVGIITTHNLTYEFLQARLRQ, which protein stability index is on record?
The protein stability index was 3.15.

With VGEIVGIITRHNLTPEFLQARLRQ as the variant, how does the protein stability index read?
Its protein stability index is 1.62.

Which protein stability index does the source give for VGEIVGIITRHNLTDEFLQARLRQ here?
Its protein stability index is 1.51.

With VGEIVGIITRHNLTVEFLQARLRQ as the variant, how does the protein stability index read?
The protein stability index was 1.63.

Which protein stability index does the source give for VGEIVGIITRHNLTSEFLQARLRQ here?
The protein stability index was 1.83.

Which protein stability index does the source give for VGEIVGIITRHNLTAEFLQARLRQ here?
The protein stability index was 2.07.

Which protein stability index does the source give for VGEIVGIITRHNLTREFLQARLRQ here?
The protein stability index was 4.35.

For VGEIVGIITRHNLTGEFLQARLRQ, which protein stability index is on record?
The protein stability index was 1.65.

Which protein stability index does the source give for VGEIVGIITRHNLTQEFLQARLRQ here?
Its protein stability index is 2.38.

For VGEIVGIITRHNLTKEFLQARLRQ, which protein stability index is on record?
Its protein stability index is 1.47.

Which protein stability index does the source give for VGEIVGIITRHNLTFEFLQARLRQ here?
Its protein stability index is 2.95.

For VGEIVGIIFRHNLTYEFLQARLRQ, which protein stability index is on record?
Its protein stability index is 2.35.

For VGEIVGIILRHNLTYEFLQARLRQ, which protein stability index is on record?
Its protein stability index is 1.89.

For VGEIVGIIRRHNLTYEFLQARLRQ, which protein stability index is on record?
Its protein stability index is 1.4.

Which protein stability index does the source give for VGEIVGIIGRHNLTYEFLQARLRQ here?
Its protein stability index is 2.63.

For VGEIVGIISRHNLTYEFLQARLRQ, which protein stability index is on record?
The protein stability index was 2.77.

With VGEIVGIIERHNLTYEFLQARLRQ as the variant, how does the protein stability index read?
The protein stability index was 1.38.

Which protein stability index does the source give for VGEIVGIINRHNLTYEFLQARLRQ here?
The protein stability index was 2.88.

Which protein stability index does the source give for VGEIVGIICRHNLTYEFLQARLRQ here?
Its protein stability index is 2.71.

Which protein stability index does the source give for VGEIVGIIKRHNLTYEFLQARLRQ here?
The protein stability index was 1.29.

Which protein stability index does the source give for VGEIVGIIDRHNLTYEFLQARLRQ here?
The protein stability index was 1.92.

For VGEIVGIIPRHNLTYEFLQARLRQ, which protein stability index is on record?
Its protein stability index is 2.78.

Which protein stability index does the source give for VGEIVHIITRHNLTYEFLQARLRQ here?
The protein stability index was 2.89.

With VGEIVPIITRHNLTYEFLQARLRQ as the variant, how does the protein stability index read?
Its protein stability index is 1.7.

With VGEIVSIITRHNLTYEFLQARLRQ as the variant, how does the protein stability index read?
Its protein stability index is 2.95.

Which protein stability index does the source give for VGEIVTIITRHNLTYEFLQARLRQ here?
The protein stability index was 3.72.

For VGEIVEIITRHNLTYEFLQARLRQ, which protein stability index is on record?
The protein stability index was 4.38.
